Measurements as given in article PMC3866644 (RNA, 2014).

T1: His6 fusion Prp39, full-length (yeast, UniProt P39682 1-629)
T1 sequence: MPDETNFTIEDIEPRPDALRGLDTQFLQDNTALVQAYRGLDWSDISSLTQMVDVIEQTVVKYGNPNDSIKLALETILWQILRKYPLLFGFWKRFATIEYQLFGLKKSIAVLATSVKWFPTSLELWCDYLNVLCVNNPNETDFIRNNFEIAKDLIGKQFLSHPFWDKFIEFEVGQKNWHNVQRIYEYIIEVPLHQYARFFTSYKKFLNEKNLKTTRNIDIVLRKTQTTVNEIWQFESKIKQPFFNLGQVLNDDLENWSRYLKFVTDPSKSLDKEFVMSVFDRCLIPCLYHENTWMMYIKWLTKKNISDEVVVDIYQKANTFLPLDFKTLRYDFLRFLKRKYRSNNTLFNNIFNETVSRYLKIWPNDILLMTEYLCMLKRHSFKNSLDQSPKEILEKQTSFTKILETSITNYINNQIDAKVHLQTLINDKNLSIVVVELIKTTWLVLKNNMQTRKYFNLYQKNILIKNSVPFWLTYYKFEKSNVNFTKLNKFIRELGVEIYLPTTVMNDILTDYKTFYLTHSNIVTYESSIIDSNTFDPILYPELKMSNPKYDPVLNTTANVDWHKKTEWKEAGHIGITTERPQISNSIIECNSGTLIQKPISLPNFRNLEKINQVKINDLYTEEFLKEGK

T2: His6 fusion Prp40, full-length (yeast, UniProt P33203 1-583)
T2 sequence: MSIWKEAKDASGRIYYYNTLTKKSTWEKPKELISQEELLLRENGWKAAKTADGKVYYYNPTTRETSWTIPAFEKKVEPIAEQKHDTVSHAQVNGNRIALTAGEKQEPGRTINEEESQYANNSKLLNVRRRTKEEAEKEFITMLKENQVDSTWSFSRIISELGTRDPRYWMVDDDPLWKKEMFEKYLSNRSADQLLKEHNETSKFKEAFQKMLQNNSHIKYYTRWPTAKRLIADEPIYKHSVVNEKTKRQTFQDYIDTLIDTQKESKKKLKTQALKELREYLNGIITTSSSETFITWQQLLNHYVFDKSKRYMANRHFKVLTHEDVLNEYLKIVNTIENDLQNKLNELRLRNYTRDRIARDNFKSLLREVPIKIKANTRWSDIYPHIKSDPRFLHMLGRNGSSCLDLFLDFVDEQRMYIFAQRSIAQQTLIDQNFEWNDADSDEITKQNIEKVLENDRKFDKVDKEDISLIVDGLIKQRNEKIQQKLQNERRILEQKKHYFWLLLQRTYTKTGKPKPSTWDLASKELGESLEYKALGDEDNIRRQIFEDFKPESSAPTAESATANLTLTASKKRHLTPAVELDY

T3: His6 fusion Prp28 (yeast, UniProt P23394 1-588)
T3 sequence: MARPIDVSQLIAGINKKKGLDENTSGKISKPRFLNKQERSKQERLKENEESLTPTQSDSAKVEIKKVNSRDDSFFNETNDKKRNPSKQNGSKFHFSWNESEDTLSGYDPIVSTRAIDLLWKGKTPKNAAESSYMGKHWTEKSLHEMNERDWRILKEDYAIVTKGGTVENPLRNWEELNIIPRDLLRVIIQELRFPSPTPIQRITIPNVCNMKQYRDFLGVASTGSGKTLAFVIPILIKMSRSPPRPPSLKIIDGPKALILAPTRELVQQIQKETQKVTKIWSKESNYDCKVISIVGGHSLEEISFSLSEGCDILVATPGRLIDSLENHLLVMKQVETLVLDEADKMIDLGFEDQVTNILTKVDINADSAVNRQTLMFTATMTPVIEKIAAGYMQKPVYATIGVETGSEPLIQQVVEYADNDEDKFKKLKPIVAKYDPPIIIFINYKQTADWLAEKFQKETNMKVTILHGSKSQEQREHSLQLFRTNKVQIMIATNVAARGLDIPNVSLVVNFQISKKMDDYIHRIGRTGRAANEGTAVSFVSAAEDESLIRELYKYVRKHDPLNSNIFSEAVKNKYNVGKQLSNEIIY


Columns and labels:
Experiment in all cases: pull-down
[1] = biological target: T1, His6 fusion Prp39, full-length
[2] = biological target: T2, His6 fusion Prp40, full-length
[3] = biological target: T3, His6 fusion Prp28

Row | binding result [1] | binding result [2] | binding result [3] | Binder
1 | binds | binds | – | GST-fusion Prp8-NTD(P263L/W279G) (domain or fragment) MSGLPPPPPGFEEDSDLALPPPPPPPPGYEIEELDNPMVPSSVNEDTFLPPPPPPPSNFEINAEEIVDFTLPPPPPPPGLDELETKAEKKVELHGKRKLDIGKDTFVTRKSRKRAKKMTKKAKRSNLYTPKAEMPPEHLRKIINTHSDMASKMYNTDKKAFLGALKYLPHAILKLLENMPHPWEQAKEVKVLYHTSGAITFVNETPRVIEPVYTAQWSATWIAMRREKRDRTHFKRMRFPPFDDDEPPLSYEQHIENIEPLDLINLPLDSQDDEYVKDGLYDSRPLEEDSKKVNGTSYKKWSFDLPEMSNLYRLSTPLRDEVTDKNYYYL
2 | binds | binds | – | GST-fusion Prp8-NTD(D273G) (domain or fragment) MSGLPPPPPGFEEDSDLALPPPPPPPPGYEIEELDNPMVPSSVNEDTFLPPPPPPPSNFEINAEEIVDFTLPPPPPPPGLDELETKAEKKVELHGKRKLDIGKDTFVTRKSRKRAKKMTKKAKRSNLYTPKAEMPPEHLRKIINTHSDMASKMYNTDKKAFLGALKYLPHAILKLLENMPHPWEQAKEVKVLYHTSGAITFVNETPRVIEPVYTAQWSATWIAMRREKRDRTHFKRMRFPPFDDDEPPLSYEQHIENIEPLDPINLPLDSQDGEYVKDWLYDSRPLEEDSKKVNGTSYKKWSFDLPEMSNLYRLSTPLRDEVTDKNYYYL
3 | binds | binds | – | GST-fusion Prp8-NTD(R226G) (domain or fragment) MSGLPPPPPGFEEDSDLALPPPPPPPPGYEIEELDNPMVPSSVNEDTFLPPPPPPPSNFEINAEEIVDFTLPPPPPPPGLDELETKAEKKVELHGKRKLDIGKDTFVTRKSRKRAKKMTKKAKRSNLYTPKAEMPPEHLRKIINTHSDMASKMYNTDKKAFLGALKYLPHAILKLLENMPHPWEQAKEVKVLYHTSGAITFVNETPRVIEPVYTAQWSATWIAMRGEKRDRTHFKRMRFPPFDDDEPPLSYEQHIENIEPLDPINLPLDSQDDEYVKDWLYDSRPLEEDSKKVNGTSYKKWSFDLPEMSNLYRLSTPLRDEVTDKNYYYL
4 | binds | binds | binds | GST-fusion Prp8-NTD (Prp8 residues 1-330), wild-type sequence (domain or fragment) not shown
